The supplement of paper PMC9170038

Test system: MS2 coat protein
Assay: apparent KD of MS2 coat protein; designed switch direction (-1 OFF switch, 1 ON switch): 1; higher = weaker reporter binding
Method in brief: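 The reported apparent KD is a per-design median over clusters, from curve fits of normalised cluster fluorescence. Protein titrations used SNAP-549-labelled MS2 coat protein, doubled from 0.7 or 1.5 nM to 3 µM, in Tris-HCl pH 7.5 buffer with KCl, MgCl2, BSA, DTT, tRNA and Tween-20, with no input, 200 uM small-molecule ligand, or an oligonucleotide input. The RNA switches were transcribed on Illumina chips by stalled E. coli RNA polymerase.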

[1] = input ligand: microRNA oligo, concentration not stated
[2] = Eterna round: R95, input ligand: FMN 200 uM
[3] = Eterna round: R95, input ligand: microRNA oligo, concentration not stated
[4] = Eterna round: R95, input ligand: none

Sequence | apparent KD of MS2 coat protein (input ligand: FMN 200 uM) [nM] | apparent KD of MS2 coat protein [1] [nM] | apparent KD of MS2 coat protein (input ligand: none) [nM] | apparent KD of MS2 coat protein [2] [nM] | apparent KD of MS2 coat protein [3] [nM] | apparent KD of MS2 coat protein [4] [nM]
UGAAUAGUCACAGGAUAUCAUGCGAAAAUUGCGUGAGAAGGGUGGGUGUUGUGCUCAAAGUGCUACAUGAGGAUCACCCAUGUU [SameState NG1 #41] (Eterna round: R96, puzzle: Same State NG 1) | 1540 | 638 | 1210 | – | – | –
GGAGAACAUGAGGAUCACCCAUGUGAGAGGGAUGUAGGAUAUGUGAGGAGUAAAGGAGGGACAGAAGGACAGAGAU [JR_SS!_Sub068] (Eterna round: R96, puzzle: Same State 1) | – | 30.4 | – | – | – | –
CGUCCGGCCUGUGCUGGCCGGUUGCUUGUACAUGAGGAUCACCCAUGUUCUUGUGCUGGCUUUUUGCUCGUCUUGUG [salish99_mir208a_019] (puzzle: Sensor for hsa-mir-208a) | – | – | – | 31.5 | 19.2 | 37.8
ACACUCCGUGGAGGAUAUGGGCCUGCCCGGGAUACCGGGCCUAACACAUGAGGAUCACCCAUGUCCCAGAAGGCCGCUGGAGCC [Enenala] (Eterna round: R96, puzzle: Same State NG 2) | 26.2 | 55.7 | 120 | – | – | –
AUUAUUAAUGCAGGAUAUGAUUAACAUGAGGAUCACCCAUGUGGUGUUGUGAGUAAGGAGAGUGAUCAGAAGGGCAUUUUUUGU [JMF's solution 16] (Eterna round: R96, puzzle: Same State NG 2) | 798 | 264 | 615 | – | – | –
GUAGCAUACCGAGGAUAUUCAUAUAAUAUACAUGAGGAUCACCCAUGUUAUAGGCGAAAGCCUUGGGAGAAGGCGGAAUGCUAC [Xeonanis - 20 Mod62] (Eterna round: R96, puzzle: Same State NG 2) | 8.73 | 15.3 | 14.9 | – | – | –
AACAAUCUAUCUUAGGAUAUCAUGAAAUAAACAUGAGGAUCACCCAUGUGCAGGAAAACUGCAUAUGAGAAGGCAGAUAGAUUGA [salish99_ss2_r3_026] (puzzle: Same State 2) | – | – | – | 593 | 36.2 | 42.2
GCCAACACAUGAGGAUAUGGCACCUUAUUGGUGCCAGAAGGCAUGUCUAUUGACAUGAGGAUCACCCAUGUAUUAUAGUUGGCA [Fiskers NG1ss - 14] (Eterna round: R96, puzzle: Same State NG 1) | 75.2 | 214 | 1210 | – | – | –
GAGUUACUAUCUCAGGAUAUCAUGUCAAAGACAUGAGGAUCACCCAUGUACCAGGAAACUGGUUAUGAGAAGGGAGAUAGUAACA [Mat - Same State 2 - Mod - D51] (puzzle: Same State 2) | – | – | – | 113 | 9.6 | 14.4
GUAACAUGACGAGGAUAUGGAACAUGAGGAUCACCCAUGUAUGUUCCAUAACGCGAAUAAAGAAUCCAGAAGGCGUCGUGAAAU [Mat - Same State NG 2 - JL mod - D33] (Eterna round: R96, puzzle: Same State NG 2) | 22.1 | 118 | 120 | – | – | –
UUGCGCUGUCGAGAGGAUAUGCGGUGAUGGACAUGAGGAUCACCCAUGUUAGCGAUAGCAUUACGGUAGAAGGCUCUACAGCUGC [salish99_ss2_r3_094] (puzzle: Same State 2) | – | – | – | 13 | 21.5 | 21.9
GUGGUGUAGAUACAGGAUAUGUUGCUCGUAACAUGAGGAUCACCCAUGUAUCUAUGAGAUUAAAUGCAGAAGGGUGCACACCACU [salish99_ss2_r3_086] (puzzle: Same State 2) | – | – | – | 15.7 | 148 | 325
GAGUGGUGGAGAGGAUAUACAUUGAUAUUCACUGUAGAAGGUUCUAACAUGAGGAUCACCCAUGUAGGACUAUUCCUGAGAGUU [Parity 54 - Jieux - Same State NG 1] (Eterna round: R96, puzzle: Same State NG 1) | 11 | 8.99 | 14.7 | – | – | –
AACAAUCUAUCUGAGGAUAUCAUGAAAUAAACAUGAGGAUCACCCAUGUGUAGGAAAACUGCAUAUGAGAAGGCAGAUAGAUUGA [salish99_ss2_r3_036] (puzzle: Same State 2) | – | – | – | 31.9 | 299 | 1330
GAGGGCGAAAGCAACAUGAGGAUCACCCAUGUUGUCGAAAGGCAGGAUAUCCGGCGAAAGCAGAAGGAGAAGGGUCGAAAAGAA [AK SSNG3-V2-40] (Eterna round: R96, puzzle: Same State NG 3) | 14.5 | 19.7 | 24.9 | – | – | –
UUAAUUAAUUAAUUAUACAUGAGGAUCACCCAUGUAAGUGAUCAGGAUAUCAGCUCGAUUAGAGCUGAGAAGGGAUACAUGAAU [SSNG3/12-A2] (Eterna round: R96, puzzle: Same State NG 3) | 94.4 | 88.3 | 139 | – | – | –

Sequence | apparent KD of MS2 coat protein (input ligand: FMN 200 uM) [nM] | apparent KD of MS2 coat protein [1] [nM] | apparent KD of MS2 coat protein (input ligand: none) [nM] | apparent KD of MS2 coat protein [2] [nM] | apparent KD of MS2 coat protein [3] [nM] | apparent KD of MS2 coat protein [4] [nM]
AAAAUGGUAUGUUACAUGAGGAUCACCCAUGUACCGUCAUCUGAGGAUAUGGUGAUGUAGAAGAAUCAGAAGGCAGACAUUUAA [AK SSNG3-V2-25] (Eterna round: R96, puzzle: Same State NG 3) | 17.3 | 20 | 34.1 | – | – | –
AGGCUCAGACGAGGAUAUGAUCAUGGCGCUUCGGCGCAUACAUGAGGAUCACCCAUGUAAAGUGAUCAGAAGGUGUCUGAGCCA [SSNG2/7-B1] (Eterna round: R96, puzzle: Same State NG 2) | 13.9 | 11 | 16.1 | – | – | –
AGUCCAGCCUAAGCUGGACAAAAGCAUGUACAUGAGGAUCACCCAUGUUCAUGUACAAGCUUUUUGCUCGUCUUAAU [Mat - hsa-mir-208a - Mod of JL - 60] (puzzle: Sensor for hsa-mir-208a) | – | – | – | 608 | 18.1 | 697
AAUUAAUUAAUACAUGAGGAUCACCCAUGUAAUUAUUAGAUCAAGGAUAUCAGCUCGAAUAGAGCUGAGAAGGUGAUCACAUGU [SSNG3/18-A1] (Eterna round: R96, puzzle: Same State NG 3) | – | 259 | – | – | – | –
ACAUGAGAACGAGGAUAUUUUGUACCUACAUGUGACAUGAGGAUCACCCAUGUGGUAAGUAUGAGAAAGAAGGCGUAGAUAUGU [Equivalence 14 - Jieux - Same State NG 2] (Eterna round: R96, puzzle: Same State NG 2) | 21.9 | 30.6 | 29 | – | – | –
GGAGCCGGCACCGAGGAUAUUCAUAUUAAAACAUGAGGAUCACCCAUGUAGGCCAGAAGGCCUUGGGAGAAGGCGGAUCGGCUCA [Xeonanis - 6] (puzzle: Same State 2) | – | – | – | 29.5 | 376 | 491
CCGAUAAAUGGAGGAUAUGGAGCCUUAUUGGCUCCAGAAGGCUAAUAACAUGAGGAUCACCCAUGUCGGCGGUCUAAUGACCGA [Eli NG1ss - 51] (Eterna round: R96, puzzle: Same State NG 1) | – | 46.4 | – | – | – | –
GGAGGACAUGAGGAUCACCCAUGUGGAUGGGCGCUAGGAUAUGCGAGAGGGAAGAGUGGAGCAGAAGGAGUGGGUU [JR_SS1_Sub044] (puzzle: Same State 1) | – | – | – | – | 40 | –
AUACAUGAGGAUCACCCAUGUAAUUAAUUAAUUAAUAAGAUCUAGGAUAUCAGCUCGUUUAGAGCUGAGAAGGAGAUCACAUGU [SSNG3/21-B3] (Eterna round: R96, puzzle: Same State NG 3) | – | 19.8 | – | – | – | –
GGUAGGUUACUACCAAUCACAUGAGGAUCACCCAUGUUUUGGGAGGAUAUGGUACCUAUUUGGUACCAGAAGGCCUUAUUAAUU [Fiskers NG3ss - 12] (Eterna round: R96, puzzle: Same State NG 3) | 63.6 | 36.2 | 65.3 | – | – | –
UUGAUUAACGUAGGAUAUCGACCUACAUGAGGAUCACCCAUGUCUUUGAAUAGAUUUUUUUGUUACGAGAAGGACGUUAUGUAU [JR_SSNG2_Sub066] (Eterna round: R96, puzzle: Same State NG 2) | 40.7 | 49.6 | 89.4 | – | – | –
GCGGACCUCACAUGAGGAUCACCCAUGUUGCGGAGACGCAAUGAGGAUAUCGAUGGGUUUCCCGUCGAGAAGGCAUAAAUCCGC [JL SSNG3 3.93 mod 4] (Eterna round: R96, puzzle: Same State NG 3) | 109 | 44.5 | 56.6 | – | – | –
GUACUACAUGAGGAUCACCCAUGUACGCCAGUACGAGGAUAUGCAUGGGCGCUAGCUGGUGCAGAAGGCGUAGUGC [Pin2Pin #6] (puzzle: Same State 1) | – | – | – | 21 | 24 | 45.5
CCGGAUAAUGGAGGAUAUGGAGCCUUAUUGGCUCCAGAAGGCUAACAUGAGGAUCACCCAUGUAAUCCGGCGGUCAAUAGACCG [Eli NG1ss - 65] (Eterna round: R96, puzzle: Same State NG 1) | 12 | 15 | 25.5 | – | – | –
ACAUGAGACUGAGGAUAUGUUGUACCUACAUGUGACAUGAGGAUCACCCAUGUGGUAAGUAUGAUACAGAAGGCAGAGAUAUGU [Equivalance 63 - Jieux - Same State NG 2] (Eterna round: R96, puzzle: Same State NG 2) | 14.2 | 14.5 | 22.1 | – | – | –
